How the values were obtained:
[1] = biological target: T1, partial-length periostin (R1/R2 regions) (Homo sapiens (Human), UniProt Q15063 111-378, limits assumed); experiment: ELISA on immobilized antigen, POD-labeled anti-mouse IgG, A405
T1 sequence: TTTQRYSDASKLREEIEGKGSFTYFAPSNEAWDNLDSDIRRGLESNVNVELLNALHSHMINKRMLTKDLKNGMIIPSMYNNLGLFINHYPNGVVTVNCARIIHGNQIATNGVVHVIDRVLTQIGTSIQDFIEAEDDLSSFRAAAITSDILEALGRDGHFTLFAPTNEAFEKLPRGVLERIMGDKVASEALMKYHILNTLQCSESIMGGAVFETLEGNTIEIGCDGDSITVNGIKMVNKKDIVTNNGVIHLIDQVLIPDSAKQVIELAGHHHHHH

[2] = biological target: T2, partial-length periostin (R2 region) (Homo sapiens (Human), UniProt Q15063 235-378, limits assumed); experiment: as above
T2 sequence: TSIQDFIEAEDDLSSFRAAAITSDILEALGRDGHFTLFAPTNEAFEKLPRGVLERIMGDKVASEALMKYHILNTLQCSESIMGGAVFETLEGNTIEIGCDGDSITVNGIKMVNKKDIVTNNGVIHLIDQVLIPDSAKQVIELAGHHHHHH

[3] = biological target: T3, partial-length periostin (R4 region) (Homo sapiens (Human), UniProt Q15063 496-631, limits assumed); experiment: as above
T3 sequence: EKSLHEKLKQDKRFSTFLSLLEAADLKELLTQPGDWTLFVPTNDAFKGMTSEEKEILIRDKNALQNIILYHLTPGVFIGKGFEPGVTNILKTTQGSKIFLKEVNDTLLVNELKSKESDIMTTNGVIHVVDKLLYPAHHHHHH

[4] = biological target: T4, partial-length periostin (EMI region) (Homo sapiens (Human), UniProt Q15063 22-110, limits assumed); experiment: as above
T4 sequence: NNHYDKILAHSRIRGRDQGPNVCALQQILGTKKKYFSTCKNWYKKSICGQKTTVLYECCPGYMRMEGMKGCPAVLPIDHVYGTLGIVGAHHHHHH

[5] = biological target: T5, partial-length periostin (C-terminal region) (Homo sapiens (Human), UniProt Q15063 632-836, limits assumed); experiment: as above
T5 sequence: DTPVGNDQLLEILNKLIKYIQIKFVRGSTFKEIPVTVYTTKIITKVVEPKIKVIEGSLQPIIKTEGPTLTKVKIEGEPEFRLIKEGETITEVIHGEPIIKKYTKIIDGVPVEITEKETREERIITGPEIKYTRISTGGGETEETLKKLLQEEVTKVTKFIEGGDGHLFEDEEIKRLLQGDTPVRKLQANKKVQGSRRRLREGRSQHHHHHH

[6] = biological target: T6, periostin (S2 recombinant periostin protein tagged with V5/His) (Homo sapiens (Human), UniProt Q15063 22-836, limits assumed); experiment: ELISA on immobilized antigen (5 ug/mL), A405; bound if difference to control well is 0.2 or more
T6 construct: also called osteoblastic specific factor 2; OSF2
T6 sequence: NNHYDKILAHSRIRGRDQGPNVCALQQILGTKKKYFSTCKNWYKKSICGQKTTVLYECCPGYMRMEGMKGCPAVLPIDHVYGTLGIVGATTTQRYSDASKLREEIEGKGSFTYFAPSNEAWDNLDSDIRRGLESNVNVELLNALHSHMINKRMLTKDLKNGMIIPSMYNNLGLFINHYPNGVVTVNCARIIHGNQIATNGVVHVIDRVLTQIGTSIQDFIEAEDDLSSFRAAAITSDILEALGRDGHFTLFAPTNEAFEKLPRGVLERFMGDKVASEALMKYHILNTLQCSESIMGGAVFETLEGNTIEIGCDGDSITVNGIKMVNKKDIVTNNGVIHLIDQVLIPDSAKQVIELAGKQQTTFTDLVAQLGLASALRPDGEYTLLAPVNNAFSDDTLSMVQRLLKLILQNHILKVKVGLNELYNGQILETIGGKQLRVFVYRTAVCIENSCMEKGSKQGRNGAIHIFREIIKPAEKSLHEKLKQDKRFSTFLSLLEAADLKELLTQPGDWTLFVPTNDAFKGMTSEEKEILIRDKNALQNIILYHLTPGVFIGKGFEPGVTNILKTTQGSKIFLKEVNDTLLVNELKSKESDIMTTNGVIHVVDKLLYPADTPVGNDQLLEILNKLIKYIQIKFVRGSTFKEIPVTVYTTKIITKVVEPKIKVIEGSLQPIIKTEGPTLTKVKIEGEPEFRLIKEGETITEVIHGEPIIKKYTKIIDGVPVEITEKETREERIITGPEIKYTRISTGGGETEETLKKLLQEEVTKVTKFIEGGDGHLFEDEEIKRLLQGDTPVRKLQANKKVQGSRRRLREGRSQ
Method: (8) Subsequently, the absorbance in each well of the microtiter plate in (7) at 405 nm was measured with a spectrophotometer.
Based on the measurement results of the absorbance, if the difference between the obtained measured values of absorbance in the well immobilizing periostin or a partial-length periostin and the measured values of absorbance in the control well (into which phosphate-buffered saline was poured instead of periostin or partial-length periostins) is 0.2 or more, an anti-periostin monoclonal antibody was determined to have bound to the periostin or the partial-length periostin immobilized to the well of the microtiter plate.

B1: anti-periostin monoclonal antibody (SS19D) (antibody, V domains shown)
VH: QVQLQQPGSELVKPGASVKLSCKASGYTFTSYWMHWVKQSPGQGLEWIGEINPSNGRTNYNEKFKTKATLTVDKSSSTAYMQLNSLTSEDSAVYYCVRGDEGFAYWGQGTLVTVSA
VL: NIVLTQSPASLAVSLGQRATISCSASESVDSYGRSFIHWFQQKPGQPPKLLIYLASYLESGVPARFSGSGSRTDFTLTIDPVEADDAATYYCHQNNEDPPTFGGGAKLEIKR
- binding result [1]: no binding
- binding result [2]: no binding
- binding result [3]: no binding
- binding result [4]: no binding
- binding result [5]: no binding
- binding result [6]: binds
